Where a chain is given by its changes, count along the chain named. Where two headings read alike, the source gives them in different places.
Tests used:
Assay in all cases: AUC
AUC [1] = biological target: the molecule itself
AUC [2] = biological target: the molecule itself; remark: listed apart in the source
AUC [3] = biological target: the molecule itself; remark: listed apart in the source

B1: Escherichia coli primosomal DnaT protein, wild type (natural protein, E. coli, UniProt P0A8J2 1-179, looked up)
chain: MSSRVLTPDVVGIDALVHDHQTVLAKAEGGVVAVFANNAPAFYAVTPARLAELLALEEKLARPGSDVALDDQLYQEPQAAPVAVPMGKFAMYPDWQPDADFIRLAALWGVALREPVTTEELASFIAYWQAEGKVFHHVQWQQKLARSLQIGRASNGGLPKRDVNTVSEPDSQIPPGFRG
stoichiometry N (AUC [1]): 3

B2: isolated N-terminal core domain of the DnaT protein (domain or fragment, E. coli, UniProt P0A8J2 1-161, looked up)
chain: MSSRVLTPDVVGIDALVHDHQTVLAKAEGGVVAVFANNAPAFYAVTPARLAELLALEEKLARPGSDVALDDQLYQEPQAAPVAVPMGKFAMYPDWQPDADFIRLAALWGVALREPVTTEELASFIAYWQAEGKVFHHVQWQQKLARSLQIGRASNGGLPKR
stoichiometry N (AUC [2]): 2

B3: fluorescein-labeled N-terminal core domain of the DnaT variant S3C (domain or fragment, E. coli, UniProt P0A8J2 1-161, looked up)
chain: B2 chain with S3C
modifications: fluorescein (fluorescein maleimide) on the cysteine that replaces serine 3
stoichiometry N (AUC [3]): 2

Source: PMC3686320 (Biochemistry, 2013)
